Key:
[1] = biological target: human uPAR on SW480 cells (人结肠癌细胞) (human) (UniProt Q03405); experiment: flow cytometry on SW480 cells, antibody at 5 μg/ml, FITC goat anti-human IgG
[2] = biological target: 重组人uPAR蛋白 (recombinant human uPAR protein, uPAR-ECD) (human) (UniProt Q03405); experiment: ELISA, plate coated with uPAR-ECD (2 ng/μl), antibody at 0.125 μg/ml, goat anti-human IgG-HRP
[3] = biological target: 重组人uPAR蛋白 (recombinant human uPAR protein, uPAR-ECD) (human) (UniProt Q03405); experiment: ELISA, plate coated with uPAR-ECD (2 ng/μl), antibody at 0.0625 μg/ml, goat anti-human IgG-HRP

B1: H5L5抗体 (humanized anti-uPAR antibody H5L5) (antibody, human IgG1, kappa, V domains shown)
VH: EVQLVQSGAEVKKPGATVKISCKASGYTFSDFYIHWVRQAPGKGLEWMGWIFHGSDNTEYNEKFRGRVTITADTSTDTGYLELSSLRSEDTAVYYCARWGPHWYFDVWGQGTLVSVSS
VL: MIQMTQSPSSVSASVGDRVTITCRASQDVSYMAWYQQKPGKAPKPWIFEISTLQSGVPSRFSGSGSGTDYSLTINSLQPEDFATYYCQQWNYPFTFGGGTKVEIKR
平均荧光强度 (MFI) [1]: 3.17 | 阳性率 (percent positive cells) [1]: 99.2% | OD450 [2]: 1.86 OD450 | OD450 [3]: 1.42 OD450
